In patent US8691225B2, “Antibodies against the ectodomain of ErbB3 and uses thereof” (Merrimack Pharmaceuticals, Inc., priority 2007, dated 2014):

Key:
[1] = system: ACHN (a renal tumor cell line) xenograft tumors; assay: ACHN xenograft combination therapy; type: in vivo, mouse; details: Ab #6 300 μg IP every three days; erlotinib 25 mg/kg orally once daily
Procedure: In a first experiment, mice bearing ACHN (a renal tumor cell line) xenograft tumors are prepared by establishing tumors subcutaneously in the flanks of nude mice (Charles River Laboratories).

ErbB3 = ErbB3 (Homo sapiens, UniProt P21860); assay: Surface Plasmon Resonance Assay; type: binding
ErbB3 in AdrR xenografts = biological target: T1, ErbB3 in AdrR xenografts (Homo sapiens, UniProt P21860); assay: total ErbB3 in AdrR xenografts in vivo by ELISA; set-up: species or system mouse
T1 construct: host or cells: AdrR (NCI/AdrR) ovarian cancer cells
Procedure: Briefly, the samples were pulverized in a cryopulverizer (Covaris Inc). Tumors were stored in special bags (pre-weighed before the addition of the tumor) and placed in liquid nitrogen while handling them. For small tumors, 200 μL of Lysis buffer was first added to the bag with the tumor, frozen in liquid nitrogen and then pulverized to improve the recovery of the tumor from the bag. Pulverized tumors were transferred to 2 ml EPPENDORF tubes and placed in liquid nitrogen until lysed. Tumors were lysed in Lysis buffer supplemented with protease and phosphatase inhibitors. Lysis Buffer was added to the tumor aliquots in a final concentration of 62.5 mg/ml. Tumor samples were homogenized by vortexing for 30 seconds and letting them sit on ice for 30 min. The lysates were spun for 10 minutes in QIAGEN […] columns for further homogenization of the samples. Cleared lysates were aliquoted into fresh tubes.
The BCA assay is performed as set forth substantially as described in the materials and methods section supra.
The total levels of ErbB3 were determined by ELISA. The ELISA reagents were purchased from R&D Systems as DUOSET kits. […] Fifty microliters of SUPERSIGNAL ELISA Pico substrate was added and readout was performed on a Fusion plate reader. Data was analyzed using Microsoft EXCEL. […]

[2] = biological target: T2, ErbB3 receptor on the surface of MALME-3M cells (Homo sapiens, UniProt P21860); assay: cell surface fluorescence quenching assay (timecourse of ErbB3 downregulation); type: cell-based
T2 construct: ErbB3 expressed on MALME-3M melanoma cells; host or cells: MALME-3M melanoma cells
Procedure: In order to determine whether this downregulation of ErbB3 is due to internalization of the ErbB3 receptor on the surface of MALME-3M cells, a cell surface fluorescence quenching assay is preformed. MALME-3M cells are plated overnight on 6-well plates (0.2×10^6 per well) in RPMI+10% FBS. The following day, old medium is removed and cells are preincubated for 60 minutes on ice in RPMI+2% FBS containing 100 nM of Ab#6 conjugated to the fluorescent dye Alexa 488. Cells are then returned to a 37° C. incubator and incubated for 0.5 h, 2 h or 24 h. At the end of each timepoint, cells are trypsinized, washed with PBS+2% BSA+0.1% sodium azide (FACS stain buffer) and stored on ice until all samples are ready. For a Oh timepoint, cells are immediately trypsinized after the 60 minute preincubation and stored on ice. […] One set of tubes is incubated with 25 ug/ml anti-Alexa 488 antibody for 60 minutes on ice to quench any fluorescence source (i.e., Alexa 488-conjugated Ab#6) on the cell surface. […] For each sample 10,000 events are collected and analyzed with a FACSCALIBUR flow cytometer. This protocol gives an indication of what proportion of AB #6 (as measured by fluorescence) remains on the cell surface (indicated by the differential between the fluorescence of the quenched and unquenched cells at each timepoint) and how much is internalized (indicated by the level of fluorescence of quenched cells).

[3] = biological target: T3, AdrR cells expressing ErbB3 receptor (Homo sapiens, UniProt P21860); assay: HRG and BTC binding to AdrR cells by FACS; type: cell-based
T3 construct: host or cells: AdrR (NCI/AdrR) ovarian cancer cells

ErbB3 in MALME-3M cells = biological target: T4, ErbB3 in MALME-3M cells (Homo sapiens, UniProt P21860); assay: total ErbB3 levels in MALME-3M cells in vitro by ELISA; type: cell-based; details: 24 hours
T4 construct: ErbB3 expressed on MALME-3M melanoma cells; host or cells: MALME-3M melanoma cells
Procedure: MALME-3M cells are seeded in 96 well tissue culture plates and grown in RPMI-1640 media supplemented with antibiotics, 2 mM L-glutamine and 10% fetal bovine serum (FBS) for 24 hours at 37° C. and 5% carbon dioxide. Media are then switched to the same medium without FBS and with and without the antibody at concentrations of 1 uM, 250 nM, 63 nM, 16 nM, 4.0 nM, 1.0 nM, 240 pM, 61 pM and 15 pM. Medium containing no FBS or antibody is used as control. Cells are grown for 24 hours at 37° C. and 5% carbon dioxide, washed with cold PBS, then harvested with mammalian protein extract (MPER) lysis buffer (Pierce, 78505) to which 150 mM NaCl, 5 mM sodium pyrophosphate, 10 uM bpV (phen), 50 uM phenylarsine, 1 mM sodium orthovanadate, and protease inhibitor cocktail (Sigma, P2714) is added. Cell lysates are diluted two-fold with 4% bovine serum albumin in PBST (0.1% tween-20), then analyzed by ELISA with mouse anti-human ErbB3 capture antibody and biotinylated mouse anti-human ErbB3 secondary detection antibody. Signal is generated with streptavidin conjugated to horseradish-peroxidase reacted with SUPERSIGNAL ELISA Pico chemiluminescent substrate (Pierce, 37070). ELISAs are quantitated using a luminometer.

B1: Ab #6: human anti-ErbB3 antibody from Fab-phage library, CDRs SEQ ID NOs:7-12; used as IgG1 and IgG2 isotypes; in phase I trials as MM-121 (antibody, V domains shown)
VH: EVQLLESGGGLVQPGGSLRLSCAASGFTFSHYVMAWVRQAPGKGLEWVSSISSSGGWTLYADSVKGRFTISRDNSKNTLYLQMNSLRAEDTAVYYCTRGLKMATIFDYWGQGTLVTVSS
VL: QSALTQPASVSGSPGQSITISCTGTSSDVGSYNVVSWYQQHPGKAPKLIIYEVSQRPSGVSNRFSGSKSGNTASLTISGLQTEDEADYYCCSYAGSSIFVIFGGGTKVTVL
inhibition of tumor growth (tumor volume) [1]: inhibit tumor growth | competition with HRG for binding to ErbB3 (ErbB3): competes with HRG for binding to ErbB3 | downregulation of ErbB3 in xenografts (ErbB3 in AdrR xenografts): downregulated ErbB3 | downregulation of cell surface ErbB3 receptors ([2]; after about 30 minutes): about 50% | downregulation of cell surface ErbB3 receptors ([2]; at about 24 hours): about 93% | competition with BTC for binding to AdrR cells [3]: competes with HRG but not BTC | competition with HRG for binding to AdrR cells [3]: competes with HRG | decrease of total ErbB3 levels (ErbB3 in MALME-3M cells): about 46.9%
